Measurements: US20260274986A1, “USE OF CHIMERA IN TARGETED PROTEIN DEGRADATION TECHNOLOGY” (SUN YAT-SEN UNIVERSITY, priority 2023, published 2026)

How the values were obtained:
EGFR = molecular target: T1, EGFR (Homo sapiens, UniProt P00533); assay: Chimera-induced degradation of EGFR, Western blot; assay type: cell-based; details: 48 hours
T1 construct: two EGFR-high-expressing cell lines-A431, and A549-were selected for the experiment; endogenous in cells; host or cells: A431, A549
Procedure: In this Example, two EGFR-high-expressing cell lines-A431, and A549-were selected for the experiment. The cells were plated one day before the administration of chimeras. […] Subsequently, the cells were lysed using a lysis buffer, total proteins were extracted, and protein concentration was quantified using a BCA protein assay kit (Thermo Fisher). Proteins were separated by 10% SDS-PAGE and transferred onto polyvinylidene fluoride (PVDF) membranes via electroblotting. The membranes were blocked with 5% skim milk at room temperature for 1 hour. After removing the milk, the membranes were incubated with a primary antibody overnight at 4° C. on a shaker. The next day, the membranes were quickly immersed in TBST and washed three times, followed by incubation with a secondary antibody at room temperature for 1 hour. Finally, the proteins were detected and recorded using a chemiluminescence reagent and a Tanon chemiluminescence imaging system, and quantitative analysis was performed on the proteins using ImageJ. All primary antibodies used in this Example were an anti-EGFR antibody.

CDK5 = molecular target: T2, CDK5 (Homo sapiens, UniProt Q00535); assay: Chimera-induced degradation of intracellular target CDK5, Western blot; assay type: cell-based; details: T24 cells; 48 hours; compared to PEP2 and P1
T2 construct: a CDK5-high-expressing cell line—T24 human bladder cancer cells—was selected for the experiment; endogenous in cells; host or cells: T24
Procedure: In this Example, a CDK5-high-expressing cell line—T24 human bladder cancer cells—was selected for the experiment. The cells were plated one day before the administration of chimeras. Each of PEP2, P1 and PEP-C4-P1 was diluted in complete medium and incubated with the cells for 48 hours. Subsequently, the cells were lysed using a lysis buffer, total proteins were extracted, and protein concentration was quantified using a BCA protein assay kit (Thermo Fisher). Proteins were separated by 10% SDS-PAGE and transferred onto polyvinylidene fluoride (PVDF) membranes via electroblotting. The membranes carrying the proteins were blocked with 5% skim milk at room temperature for 1 hour. After removing the milk, the membranes were incubated with a primary antibody overnight at 4° C. on a shaker. The next day, the membranes were quickly immersed in TBST and washed three times, followed by incubation with a secondary antibody at room temperature for 1 hour. Finally, the proteins were detected and recorded using a chemiluminescence reagent and a Tanon chemiluminescence imaging system, and quantitative analysis was performed on the proteins using ImageJ. All primary antibodies used in this Example were an anti-CDK5 antibody.

T2 sequence (Q00535 whole entry): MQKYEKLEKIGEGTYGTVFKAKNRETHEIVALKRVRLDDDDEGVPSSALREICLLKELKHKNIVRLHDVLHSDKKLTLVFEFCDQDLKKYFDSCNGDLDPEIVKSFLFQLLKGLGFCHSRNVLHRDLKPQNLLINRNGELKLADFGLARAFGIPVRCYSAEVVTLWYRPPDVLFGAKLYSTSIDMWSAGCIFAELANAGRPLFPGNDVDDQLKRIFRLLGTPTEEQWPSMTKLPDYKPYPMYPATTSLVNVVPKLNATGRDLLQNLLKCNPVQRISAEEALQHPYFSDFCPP

| Substance | degradation of EGFR (Western blot, FIG. 6C) (EGFR; A431 cells) | degradation of EGFR (Western blot, FIG. 6C) (EGFR; A549 cells) | degradation of CDK5 (Western blot, FIG. 15) (CDK5) |
| --- | --- | --- | --- |
| PEP1-C3-P1: EGFR-binding polypeptide PEP1 (LARLLT) fused at C-terminus to C3-P1, SEQ ID NO: 135 (LARLLTRRRRKSFHDDSDEDLLHI) | obvious degradation effect on the membrane receptor EGFR | obvious degradation effect on the membrane receptor EGFR | – |
| PEP2-C4-P1: CDK5-binding polypeptide PEP2 (RRPPRSPDHKRYFRDKE) fused at C-terminus to C4-P1, SEQ ID NO: 136 (RRPPRSPDHKRYFRDKEYGRKKRRQRRRSFHDDSDEDLLHI) | – | – | obvious degradation effect on CDK5 |
| PEP1-P1: EGFR-binding polypeptide PEP1 (LARLLT) fused at C-terminus to P1, SEQ ID NO: 134 (LARLLTSFHDDSDEDLLHI) | obvious degradation effect on the membrane receptor EGFR | obvious degradation effect on the membrane receptor EGFR | – |
